# In publication PMC7504102, “The Penta-EF-Hand ALG-2 Protein Interacts with the Cytosolic Domain of the SOCE Regulator SARAF and Interferes with Ubiquitination” (International Journal of Molecular Sciences, 2020):
# Numbering of substitutions follows the chain as printed. In names and notes the source's numbering stands.
# B1: full-length HiBiTHA-SARAF F228S (natural protein, human, UniProt Q96BY9 31-339, looked up)
# chain: WNDPDRMLLRDVKALTLHYDRYTTSRRLDPIPQLKCVGGTAGCDSYTPKVIQCQNKGWDGYDVQWECKTDLDIAYKFGKTVVSCEGYESSEDQYVLRGSCGLEYNLDYTELGLQKLKESGKQHGFASFSDYYYKWSSADSCNMSGLITIVVLLGIAFVVYKLFLSDGQYSPPPYSEYPPFSHRYQRFTNSAGPPPPGSKSEFTGPQNTGHGATSGFGSAFTGQQGYENSGPGFWTGLGTGGILGYLFGSNRAATPFSDSWYYPSYPPSYPGTWNRAYSPLHGGSGSYSVCSNSDTKTRTASGYGGTRRR
# notes: signal peptide in the construct; SARAF, human, full length, HiBiTHA inserted after the signal peptide; F228S; source: HEK293, transfected, in lysate; not shown: HiBiT, internal (after residue 30), kept
# B2: full-length HiBiTHA-SARAF (WT) (natural protein, human, UniProt Q96BY9 31-339, looked up)
# chain: B1 chain with S198F
# notes: signal peptide in the construct; SARAF, human, full length; HiBiT and 3xHA (HiBiTHA) inserted between the signal peptide and the N-terminus of mature SARAF (31-339 a.a.); construction is in the Supplementary Information; source: HEK293 or HEK293 ALG-2KO, transfected, in lysate; not shown: HiBiT, internal (after residue 30), kept
# B3: nanoluciferase (NanoLuc, Nluc)-fused ALG-2 (natural protein, UniProt O75340 1-191, looked up)
# chain: MAAYSYRPGPGAGPGPAAGAALPDQSFLWNVFQRVDKDRSGVISDTELQQALSNGTWTPFNPVTVRSIISMFDRENKAGVNFSEFTGVWKYITDWQNVFRTYDRDNSGMIDKNELKQALSGFGYRLSDQFHDILIRKFDRQGRGQIAFDDFIQGCIVLQRLTDIFRRYDTDQDGWIQVSYEQYLSMVFSIV
# notes: synthetic gene for bacterial expression in pET24d; The whole Nluc-ALG-2 fusion is deposited as LC381846; also called Nluc-ALG-2; NlucALG-2
# Experiments:
# [1] = biological target: T1, StrepHA-SARAF_CytD-SGFP2 F228S (human, UniProt Q96BY9 195-339, F228S); experiment: co-IP; co-IP/HiBiT assay: SGFP2-fused proteins immunoprecipitated with anti-GFP pAb from HEK293 or HEK293 ALG-2KO lysates (with or without co-expressed FLAG-ALG-2); HKM, 1% Nonidet P-40, 10 mM NEM, 10 μM CaCl2; co-precipitated HiBiTHA-SARAF read by lytic HiBiT assay with LgBiT, normalised by StrepTactin-AP; conditions: partners not purified
# T1 construct: SARAF CytD, human, 195-339 a.a., F228S; also called F228S mutant; source: HEK293 or HEK293 ALG-2KO, transfected, in lysate; not shown: Twin-Strep, N-terminal, kept; 3xHA, N-terminal, kept; SGFP2, C-terminal, kept
# T1 sequence (looked up): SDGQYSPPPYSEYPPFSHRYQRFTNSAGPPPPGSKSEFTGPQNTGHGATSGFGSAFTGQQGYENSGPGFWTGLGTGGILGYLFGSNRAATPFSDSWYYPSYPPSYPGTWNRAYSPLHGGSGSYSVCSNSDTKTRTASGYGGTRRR
# [2] = biological target: T2, StrepHA-SARAF_CytD-SGFP2 (WT) (human, UniProt Q96BY9 195-339); experiment: as above; conditions: partners not purified
# T2 construct: SARAF cytosolic domain (CytD), human, 195-339 a.a; source: HEK293 or HEK293 ALG-2KO, transfected, in lysate; not shown: Twin-Strep, N-terminal, kept; 3xHA, N-terminal, kept; SGFP2, C-terminal, kept
# T2 sequence (looked up): T1 sequence (looked up) with S34F
# [3] = biological target: T3, SGFP2-fused SARAF partial fragment (SARAF-p) (human, UniProt Q96BY9 195-339); experiment: pull-down; SGFP2-fused proteins held on protein G magnetic beads via anti-GFP pAb; incubated with Nluc-ALG-2 (300 ng/mL) in buffer HKM, 0.2% Nonidet P-40, 0.1% gelatin, 100 μM CaCl2, 2 h, 4 °C; bound luciferase activity relative to Sec31A-p (100%); conditions: one partner purified
# T3 construct: source: HEK293 ALG-2KD, transfected, immunoprecipitated with anti-GFP pAb from cleared lysate
# T3 sequence (looked up): T1 sequence (looked up) with S34F
binder,measurement,setting,value
B1,relative interaction activity (WT expressed as 100%),[1],~15 % of WT
B2,"fold enhancement, Ca2+ over 5 mM EGTA, HEK293 ALG-2KO cells",[2],1.3 fold
same,"fold enhancement, Ca2+ over 5 mM EGTA, parental HEK293 cells",[2],3.7 fold
B3,binding activity relative to Sec31A-p (100%),[3],71.5%
